We go through 1 molecule from patent US20060121042A1.

In this test the target is hEphA2 (human) (UniProt P29317). Put plainly: ELISA.
Chain of hEphA2 (human) (P29317 25-534 limits assumed): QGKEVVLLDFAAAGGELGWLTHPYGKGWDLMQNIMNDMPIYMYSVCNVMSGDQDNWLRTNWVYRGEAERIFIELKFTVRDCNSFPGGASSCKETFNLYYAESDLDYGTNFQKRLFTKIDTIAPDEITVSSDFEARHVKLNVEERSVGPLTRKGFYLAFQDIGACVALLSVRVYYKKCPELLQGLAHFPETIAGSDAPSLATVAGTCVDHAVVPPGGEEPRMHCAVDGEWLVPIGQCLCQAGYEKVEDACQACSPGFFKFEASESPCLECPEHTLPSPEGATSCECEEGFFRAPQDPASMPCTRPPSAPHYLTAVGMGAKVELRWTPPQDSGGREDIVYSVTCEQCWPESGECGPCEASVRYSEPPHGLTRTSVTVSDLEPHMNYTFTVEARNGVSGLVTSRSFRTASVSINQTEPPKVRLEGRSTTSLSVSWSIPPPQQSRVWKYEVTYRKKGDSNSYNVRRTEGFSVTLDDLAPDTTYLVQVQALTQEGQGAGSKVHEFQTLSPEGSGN

B1: 3F2 (antibody, from another filing, V domains shown)
VH: EVQLVESGGGVVRPGGSLRLSCAASGFTVSDYSMNWVRQAPGKGLEWIGFIRNKANAYTTEYSASVKGRFTISRDDSKNTLYLQMNSLKTEDTAVYYCTTYPRYHAMDSWGQGTMVTVSS
VL: AIQLTQSPSSLSASVGDRVTITCRASQSISNNLHWYLQKPGQSPQLLIYYGFQSISGVPSRFSGSGSGTDFTLTISSLQPEDFATYYCQQANSWPLTFGGGTKLEIK
B1 gave an ELISA O.D. value of 0.453.
